Literature values, collected in publication PMC6239910.

Biological target: Ube2D3-Ub conjugate (Homo sapiens) (UniProt P61077)
Sequence (P61077 whole entry): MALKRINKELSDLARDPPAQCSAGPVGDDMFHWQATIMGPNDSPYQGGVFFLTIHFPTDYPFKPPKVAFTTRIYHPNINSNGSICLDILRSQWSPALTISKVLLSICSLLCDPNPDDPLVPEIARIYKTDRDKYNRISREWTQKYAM

UHRF1, sequence (Q96T88 whole entry): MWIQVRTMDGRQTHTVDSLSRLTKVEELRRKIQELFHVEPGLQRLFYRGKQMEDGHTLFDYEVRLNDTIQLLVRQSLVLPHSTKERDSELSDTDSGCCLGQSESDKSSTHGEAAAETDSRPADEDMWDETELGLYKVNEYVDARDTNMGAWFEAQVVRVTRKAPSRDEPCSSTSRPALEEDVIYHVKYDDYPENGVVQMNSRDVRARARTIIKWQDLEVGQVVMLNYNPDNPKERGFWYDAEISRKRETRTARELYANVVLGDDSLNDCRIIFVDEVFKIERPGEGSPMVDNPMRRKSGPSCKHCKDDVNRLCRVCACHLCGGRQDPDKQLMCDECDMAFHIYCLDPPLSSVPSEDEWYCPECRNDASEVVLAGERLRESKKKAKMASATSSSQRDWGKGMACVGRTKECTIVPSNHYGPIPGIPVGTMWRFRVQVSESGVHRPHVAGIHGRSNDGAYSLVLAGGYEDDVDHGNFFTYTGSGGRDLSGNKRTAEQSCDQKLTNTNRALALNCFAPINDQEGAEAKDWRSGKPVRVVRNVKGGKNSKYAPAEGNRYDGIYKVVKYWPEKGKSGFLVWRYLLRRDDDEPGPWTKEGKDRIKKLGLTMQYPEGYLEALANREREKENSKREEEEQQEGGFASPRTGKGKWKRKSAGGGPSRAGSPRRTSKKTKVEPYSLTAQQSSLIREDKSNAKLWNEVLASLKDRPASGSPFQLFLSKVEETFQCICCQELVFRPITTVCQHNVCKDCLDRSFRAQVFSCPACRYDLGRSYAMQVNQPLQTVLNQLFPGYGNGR

Kd: 3.2 µM
Substance: UHRF1 (from UniProt Q96T88)
